US20200087373A1 (UNIVERSITY OF COPENHAGEN, published 2020)
Ends that are not written are not given here. * marks the point of attachment. Palmitoyl = CCCCCCCCCCCCCCCC(=O)*; Lauroyl = CCCCCCCCCCCC(=O)*

Key:
human GIP receptor [1] = target: T1, human GIP receptor (human, UniProt P48546 22-466); assay: 125I-hGIP competition binding, COS-7/hGIPR, 0.1% casein;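 further: nonspecific binding defined as radioligand binding measured on untransfected cells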
T1 construct: whole, on cells; also called hGIPR
T1 sequence (looked up): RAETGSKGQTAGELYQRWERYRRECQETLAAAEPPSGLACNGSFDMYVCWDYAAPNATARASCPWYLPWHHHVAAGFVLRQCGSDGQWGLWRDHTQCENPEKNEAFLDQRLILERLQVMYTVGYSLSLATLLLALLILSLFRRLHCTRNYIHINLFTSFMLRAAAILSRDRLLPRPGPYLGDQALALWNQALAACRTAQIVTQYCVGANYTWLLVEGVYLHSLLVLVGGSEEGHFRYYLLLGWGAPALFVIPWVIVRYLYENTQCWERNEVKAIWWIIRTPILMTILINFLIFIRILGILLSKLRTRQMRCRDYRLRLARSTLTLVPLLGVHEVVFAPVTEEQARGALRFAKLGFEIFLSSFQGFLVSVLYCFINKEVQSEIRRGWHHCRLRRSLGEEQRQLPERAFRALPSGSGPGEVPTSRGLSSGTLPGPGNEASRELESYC
Experimental: (§1) After incubation, the cells were washed twice in ice-cold binding buffer (+/−2% HSA) and lysed using 200 mM NaOH with 1% SDS for 30 min. Nonspecific binding was determined as the binding of radioactive ligand to untransfected cells.

human GIP receptor [2] = target: T1, human GIP receptor; assay: IC50 with 2% HSA over IC50 with 0.1% casein, 125I-hGIP competition, COS-7/hGIPR
Experimental: as §1

human GIP receptor [3] = target: T1, human GIP receptor; assay: 125I-hGIP competition binding, COS-7 cells expressing hGIPR;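 further: nonspecific binding taken as radioligand bound by untransfected cells, binding buffer with or without 2% HSA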
Experimental: as §1

human GIP receptor [4] = target: T1, human GIP receptor; assay: 125I-hGIP competition binding, COS-7/hGIPR, 2% HSA;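 further: nonspecific binding defined as radioligand binding to untransfected cells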
Experimental: as §1

B1: AT118 [hGIP(5-30)NH2-C12/5] (peptide)
peptide: Lauroyl-TFISDYSIAMDKIHQQDFVNWLLAQK-NH2
SMILES: CCCCCCCCCCCC(=O)N[C@H](C(=O)N[C@@H](Cc1ccccc1)C(=O)N[C@H](C(=O)N[C@@H](CO)C(=O)N[C@@H](CC(=O)O)C(=O)N[C@@H](Cc1ccc(O)cc1)C(=O)N[C@@H](CO)C(=O)N[C@H](C(=O)N[C@@H](C)C(=O)N[C@@H](CCSC)C(=O)N[C@@H](CC(=O)O)C(=O)N[C@@H](CCCCN)C(=O)N[C@H](C(=O)N[C@@H](Cc1c[nH]cn1)C(=O)N[C@@H](CCC(N)=O)C(=O)N[C@@H](CCC(N)=O)C(=O)N[C@@H](CC(=O)O)C(=O)N[C@@H](Cc1ccccc1)C(=O)N[C@H](C(=O)N[C@@H](CC(N)=O)C(=O)N[C@@H](Cc1c[nH]c2ccccc12)C(=O)N[C@@H](CC(C)C)C(=O)N[C@@H](CC(C)C)C(=O)N[C@@H](C)C(=O)N[C@@H](CCC(N)=O)C(=O)N[C@@H](CCCCN)C(N)=O)C(C)C)[C@@H](C)CC)[C@@H](C)CC)[C@@H](C)CC)[C@@H](C)O
In the case of B1, the IC50 (human GIP receptor [1]) is reported as 115 nM, the logIC50 (human GIP receptor [1]) is reported as -6.9 log M and the “Fold change HSA (2%)/Casein (0.1%)” value (human GIP receptor [2]) is reported as 7.7 fold. For the same binder, the IC50 (human GIP receptor [3]) was 102 nM, the “log IC50” value (human GIP receptor [3]) was -7 log M and the IC50 (human GIP receptor [4]) was 881 nM. It also gave a logIC50 (human GIP receptor [4]) of -6.1 log M.

B2: AT133 [hGIP(5-30)NH2[K16R; H18K; K30R]-C16/5] (peptide)
peptide: Palmitoyl-TFISDYSIAMDRIKQQDFVNWLLAQR-NH2
SMILES: CCCCCCCCCCCCCCCC(=O)N[C@H](C(=O)N[C@@H](Cc1ccccc1)C(=O)N[C@H](C(=O)N[C@@H](CO)C(=O)N[C@@H](CC(=O)O)C(=O)N[C@@H](Cc1ccc(O)cc1)C(=O)N[C@@H](CO)C(=O)N[C@H](C(=O)N[C@@H](C)C(=O)N[C@@H](CCSC)C(=O)N[C@@H](CC(=O)O)C(=O)N[C@@H](CCCNC(=N)N)C(=O)N[C@H](C(=O)N[C@@H](CCCCN)C(=O)N[C@@H](CCC(N)=O)C(=O)N[C@@H](CCC(N)=O)C(=O)N[C@@H](CC(=O)O)C(=O)N[C@@H](Cc1ccccc1)C(=O)N[C@H](C(=O)N[C@@H](CC(N)=O)C(=O)N[C@@H](Cc1c[nH]c2ccccc12)C(=O)N[C@@H](CC(C)C)C(=O)N[C@@H](CC(C)C)C(=O)N[C@@H](C)C(=O)N[C@@H](CCC(N)=O)C(=O)N[C@@H](CCCNC(=N)N)C(N)=O)C(C)C)[C@@H](C)CC)[C@@H](C)CC)[C@@H](C)CC)[C@@H](C)O
In the case of B2, the IC50 (human GIP receptor [1]) is reported as 1720 nM, the logIC50 (human GIP receptor [1]) is reported as -5.8 log M and the “Fold change HSA (2%)/Casein (0.1%)” value (human GIP receptor [2]) is reported as 1.3 fold. For the same binder, the IC50 (human GIP receptor [3]) was 1720 nM, the “log IC50” value (human GIP receptor [3]) was -5.8 log M and the IC50 (human GIP receptor [4]) was 2200 nM. For the same binder, the logIC50 (human GIP receptor [4]) was -5.7 log M.

B3: AT134 [hGIP(5-30)NH2[K16R; H18K; K30R]-C16/18] (peptide)
peptide: TFISDYSIAMDRIK(Palmitoyl)QQDFVNWLLAQR-NH2
modifications: N-terminus assumed
SMILES: CCCCCCCCCCCCCCCC(=O)NCCCC[C@H](NC(=O)[C@@H](NC(=O)[C@H](CCCNC(=N)N)NC(=O)[C@H](CC(=O)O)NC(=O)[C@H](CCSC)NC(=O)[C@H](C)NC(=O)[C@@H](NC(=O)[C@H](CO)NC(=O)[C@H](Cc1ccc(O)cc1)NC(=O)[C@H](CC(=O)O)NC(=O)[C@H](CO)NC(=O)[C@@H](NC(=O)[C@H](Cc1ccccc1)NC(=O)[C@@H](N)[C@@H](C)O)[C@@H](C)CC)[C@@H](C)CC)[C@@H](C)CC)C(=O)N[C@@H](CCC(N)=O)C(=O)N[C@@H](CCC(N)=O)C(=O)N[C@@H](CC(=O)O)C(=O)N[C@@H](Cc1ccccc1)C(=O)N[C@H](C(=O)N[C@@H](CC(N)=O)C(=O)N[C@@H](Cc1c[nH]c2ccccc12)C(=O)N[C@@H](CC(C)C)C(=O)N[C@@H](CC(C)C)C(=O)N[C@@H](C)C(=O)N[C@@H](CCC(N)=O)C(=O)N[C@@H](CCCNC(=N)N)C(N)=O)C(C)C
In the case of B3, the IC50 (human GIP receptor [1]) is reported as 882 nM, the logIC50 (human GIP receptor [1]) is reported as -6.1 log M and the “Fold change HSA (2%)/Casein (0.1%)” value (human GIP receptor [2]) is reported as 5.5 fold. The IC50 (human GIP receptor [3]) was 882 nM, the “log IC50” value (human GIP receptor [3]) was -6.1 log M and the IC50 (human GIP receptor [4]) was 4890 nM. For the same binder, the logIC50 (human GIP receptor [4]) was -5.3 log M.
